This note sets out measurements from patent US20250115671A1 (BEIGENE, published 2025).

In experiment [1] the target is T1, human CCR8 (human, UniProt P51685 1-355). In words: flow cytometry, Jurkat-human CCR8 cells. The method, then: To evaluate the binding activity of anti-CCR8 antibodies to bind CCR8 expressed on living cells, Jurkat cells were engineered to over-express human CCR8. Jurkat-human CCR8 cells were seeded in 96-well plate and incubated with a series of dilutions of anti-CCR8 antibodies. Goat anti-human IgG was used as secondary antibody to detect antibody binding to the cell surface. EC50 values for dose-dependent binding to human CCR8 were determined by fitting the dose-response data to the four-parameter logistic model with GraphPad Prism. As shown in Table 4 and FIG. 3 the CCR8 antibodies had high binding affinity to human CCR8.
T1 sequence (P51685 whole entry): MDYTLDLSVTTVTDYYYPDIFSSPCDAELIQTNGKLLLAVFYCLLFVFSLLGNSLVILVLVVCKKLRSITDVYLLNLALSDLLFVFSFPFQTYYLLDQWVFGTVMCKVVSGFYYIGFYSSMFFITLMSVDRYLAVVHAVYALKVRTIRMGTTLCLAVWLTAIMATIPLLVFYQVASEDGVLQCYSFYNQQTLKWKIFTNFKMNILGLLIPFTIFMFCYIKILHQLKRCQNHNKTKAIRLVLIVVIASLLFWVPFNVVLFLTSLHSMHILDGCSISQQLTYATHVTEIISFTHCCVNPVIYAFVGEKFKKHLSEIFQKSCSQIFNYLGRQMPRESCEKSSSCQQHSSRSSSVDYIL
A general note: In flow cytometry, cells or beads pass a laser one at a time.

Experiment [2] addresses T1, human CCR8. Nature of the experiment: flow cytometry, stimulated human primary Treg cells (high CCR8). The method, then: Treg binding of the humanized antibodies was measured on Treg cells from human PBMC. Briefly, CD25+ cells were isolated from human PBMC. The cells were stimulated with IL-2, TGFβ and anti-CD3/CD28 beads for high CCR8-expression level Treg cells. Next, Treg cells were seeded in 96-well plate and incubated with a series of dilutions of anti-CCR8 antibodies. Goat anti-human IgG was used as secondary antibody to detect antibody binding to the cell surface. EC50 values for dose-dependent binding to human CCR8 were determined by fitting the dose-response data to the four-parameter logistic model with GraphPad Prism. As shown in FIG. 6A and Table 12 the hu305-5W-3a had the highest binding affinity to CCR8 on Treg cells of the humanized antibodies. As noted in Table 12 and FIG. 6A below, the hu305-5W-3a antibody also had the lowest IC50 regarding reducing ligand-receptor interaction.

For experiment [3], the target named is T2, human CCR8 N-terminal domain-mouse Fc tag fusion protein (human (CCR8 part), mouse IgG2a Fc).
T2 construct: also called huCCR8-N-mIgG2a; human CCR8 N-terminal protein
T2 chain: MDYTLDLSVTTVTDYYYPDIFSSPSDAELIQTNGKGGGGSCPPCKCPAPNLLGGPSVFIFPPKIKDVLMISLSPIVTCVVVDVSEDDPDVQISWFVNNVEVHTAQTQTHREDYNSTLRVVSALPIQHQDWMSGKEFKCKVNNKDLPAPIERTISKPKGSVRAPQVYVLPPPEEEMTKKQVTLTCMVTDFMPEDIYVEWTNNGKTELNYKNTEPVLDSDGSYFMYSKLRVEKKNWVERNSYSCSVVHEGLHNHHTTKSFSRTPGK
In words: ELISA, plate coated with human CCR8 N-terminal domain-Fc fusion. The method, then:
To determine whether anti-CCR8 antibodies bind to the N-terminal domain of human CCR8, ELISA plates were coated with human CCR8 N-terminal domain-mouse Fc tag fusion protein (SEQ ID NO: 28 and 29) overnight at 4° C. After washing and blocking, serially diluted anti-CCR8 antibodies were added to plates and incubated for 1 hour at room temperature. After washing, diluted HRP goat anti-human IgG Fc or HRP goat anti-mouse kappa chain (for 433H) secondary antibodies were added to plates and incubated for 45 minutes at room temperature. After washing, TMB substrate was added to plates for developing and then stopped by adding TMB substrate stop solution. The absorbance was read at 450 nm using a plate reader. […] It is a non CCR8 N-terminal loop binder.
For orientation: In an ELISA, binding on a coated surface is turned into a signal by an enzyme label.

Experiment [4] addresses T1, human CCR8. Nature of the experiment: FACS binning, Jurkat-huCCR8, 200 nM each; row = unlabeled 1st Ab; competitor (APC labeled 2nd Ab): Ch305.
Experiment [5] has as its target T1, human CCR8. In words: FACS binning, Jurkat-huCCR8, 200 nM each; row = unlabeled 1st Ab; competitor (APC labeled 2nd Ab): Ch127.
In experiment [6] the target is human CCR8 N-terminal domain-mouse Fc tag fusion protein (human (CCR8 part), mouse IgG2a Fc). In words: ELISA, plate coated with human CCR8 N-terminal domain-Fc fusion.
The target of experiment [7] is T1, human CCR8. Nature of the experiment: FACS binning, Jurkat-huCCR8, 200 nM each; row = unlabeled 1st Ab; competitor (APC labeled 2nd Ab): 4A19.
Experiment [8] concerns the target T1, human CCR8. Nature of the experiment: FACS binning, Jurkat-huCCR8, 200 nM each; row = unlabeled 1st Ab; competitor (APC labeled 2nd Ab): Ch366-2.
For experiment [9], the target named is T1, human CCR8. Nature of the experiment: FACS binning, Jurkat-huCCR8, 200 nM each; row = unlabeled 1st Ab; competitor (APC labeled 2nd Ab): 433H.
Experiment [10] has as its target T1, human CCR8. Nature of the experiment: FACS binning, Jurkat-huCCR8, 200 nM each; row = unlabeled 1st Ab; competitor (APC labeled 2nd Ab): Ch211.
Experiment [11] has as its target T1, human CCR8. Nature of the experiment: FACS binning, Jurkat-huCCR8, 200 nM each; row = unlabeled 1st Ab; competitor (APC labeled 2nd Ab): Ch326.
Experiment [12] has as its target T1, human CCR8. In words: flow cytometry, Jurkat/huCCR8 cells, Test2. The method, then:
(§1) To evaluate the binding activities of anti-CCR8 antibodies to bind native CCR8 on live cells, Jurkat cells (ATCC TIB-15) were engineered to over-express human CCR8. Live Jurkat/huCCR8 cells were seeded in 96-well plate, and were incubated with a series of dilutions of anti-CCR8 antibodies. Alexa Fluor® 647 anti-Human IgG Fc Antibody (Biolegend cat: 410714) was used as a secondary antibody to detect antibody binding to CCR8 expressed on the cell surface. EC50 values for dose-dependent binding to human native CCR8 were determined by fitting the dose-response data to the four-parameter logistic model with GraphPad Prism.

The target of experiment [13] is T1, human CCR8. In words: cell-based or functional assay.
For another experiment, the target named is T3, Cynomolgus Monkey CCR8 (cynomolgus monkey, UniProt O97665 1-356 (rhesus entry)).
T3 construct: also called cyno CCR8; cynoCCR8
T3 sequence (O97665 other isoform, or with tags, fused parts or gaps): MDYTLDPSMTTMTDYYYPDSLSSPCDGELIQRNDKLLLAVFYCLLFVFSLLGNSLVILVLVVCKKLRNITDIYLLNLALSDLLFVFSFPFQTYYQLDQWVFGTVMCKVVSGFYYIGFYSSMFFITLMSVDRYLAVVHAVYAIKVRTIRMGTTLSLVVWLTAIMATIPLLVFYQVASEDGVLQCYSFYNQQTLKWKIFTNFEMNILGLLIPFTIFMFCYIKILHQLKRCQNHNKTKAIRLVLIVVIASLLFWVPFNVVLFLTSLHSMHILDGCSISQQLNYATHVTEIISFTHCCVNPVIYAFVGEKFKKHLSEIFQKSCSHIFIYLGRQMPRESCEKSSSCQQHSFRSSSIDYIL
Nature of the experiment: flow cytometry, 293T-cynoCCR8 cells. The method, then: Goat anti-human IgG was used as secondary antibody to detect antibody binding to the cell surface. EC50 values for dose-dependent binding to cyno CCR8 were determined by fitting the dose-response data to the four-parameter logistic model with GraphPad Prism.

Experiment [14] concerns the target T1, human CCR8. Nature of the experiment: flow cytometry, Jurkat/huCCR8 cells, Test1. The method, then: as §1
The target in experiment [15] is T1, human CCR8. In words: cell-based or functional assay. This is another data set of the same source.

Where two headings read alike, the source gives them in different places.

Take hIgG (antibody): the Emax with human CCR8 [1] amounted to 204 RFU; in the experiment with human CCR8 [2], 60 RLU.

B1: 4A19 (antibody, V domains shown)
VH: QVQLVQSGAEVKKPGASVKVSCKASGYTFTDSEMHWVRQATGQGLEWMGAIQPETGGTAYNQKFKARVTMTRDTSISTAYMELSSLRSEDTAVYYCARRRRNFDYWGQGTLVTVSS
VL: DIVMTQTPLSLSVTPGQPASISCRSSQSLFHSSGNTYLHWYLQKPGQPPQLLIYKVSNRFSGVPDRFSGSGSGTDFTLKISRVEAEDVGVYYCSQSTHVPFTFGQGTKLEIKR
In [3], B1 displayed an EC50 of 0.11 nM.

B2: 433H (antibody, from another filing, V domains shown)
VH: EVQLVETGGGLVQPKGSLRLSCAASGFPFNTFAMNWVRQAPGKGLEWLARIRSKSNNYATYYADSVKDRFTISRDDSRRMLYLLMNNVKFEDTAIYYCVRGKENNYGYAMDYWGQGTSVTVSS
VL: DIVMTQAAPSVPVTPGESVSISCRSSQSLLHSNGNTYLYWFLQRPGQSPQLLIYRMSNLASGVPDRFSGSGSGTAFTLRISRVEAEDVGVYYCMQHLEYPFTFGIGTKLELKR
As to B2, the % of the maximum binding of the APC labeled antibody in the experiment with human CCR8 [4] was 28.9%; with human CCR8 [5] it was 2.55%; with human CCR8 [7], 8.43%; in the experiment with human CCR8 [8], 14.2%; with human CCR8 [9], 3.03%; with human CCR8 [10], 39.9%. The molecule also came in with a % of the maximum binding of the APC labeled antibody in the experiment with human CCR8 [11] of 1.87%. Besides, the EC50 in experiment [6] is 0.94 nM.

B3: Ch305-AF (antibody, V domains shown)
VH: QVQMKQSGPSLVQPSQSLSITCTVSGFSLTSYGVHWVRQSPGKGLEWLGVIWRGGTTDYNAAFMSRLSFTKDSSKSQVFFKLNSLQADDTAIYYCAKNRVTTVVAPNFYAMDYWGQGTSVTVSS
VL: DIVMTQSPSSLAVSVGEKVTMSCKSSQSLLYSGNQKNYLAWYQQKPGQSPKLLIYWASTRKSGVPDRLTGSGSGTDFTLTISSVKAEDLAAYYCQQYYTYPLTFGAGTRLEIK
notes: human IgG1/kappa; also called afucosylated Ch305
In the experiment with human CCR8 [12], B3 came in with an EC50 of 4.75 nM and an Emax of 16600 MFI. Moreover, in the experiment with human CCR8 [13], the “IC50(nM), blocking activity” value was 1.84 nM and the “Imax(%), blocking activity” value was 87.8%. In the experiment with human CCR8 [2], this molecule displayed an EC50 of 90.7 nM and an Emax of 1750 RLU. Also, in the experiment with Cynomolgus Monkey CCR8, a half-maximal response (EC50) required 14.8 nM and the Emax turned out to be 11900 RLU. In the experiment with human CCR8 [14], this molecule had an EC50 of 3.88 nM and an Emax of 25200 MFI. In addition, in the experiment with human CCR8 [15], the “EC50 (nM), NK cell mediated cytotoxicity (ADCC) on CCR8-expressing Treg” value came out at 0.064 nM and the “Emax (%), NK cell mediated cytotoxicity (ADCC) on CCR8-expressing Treg” value was 75.1%.

As usually defined, the EC50 is the concentration that produces a half-maximal response.
